The source of these data is publication PMC2897128 (Nature, 2010).

Data set [1] concerns the molecule itself. In words: SEC.
Data set [2] has as its target T1, Sulfolobus solfataricus SRP54 (SRP54 moiety of SRP54*) (Sulfolobus solfataricus, UniProt Q97ZE7 2-432).
T1 sequence (looked up): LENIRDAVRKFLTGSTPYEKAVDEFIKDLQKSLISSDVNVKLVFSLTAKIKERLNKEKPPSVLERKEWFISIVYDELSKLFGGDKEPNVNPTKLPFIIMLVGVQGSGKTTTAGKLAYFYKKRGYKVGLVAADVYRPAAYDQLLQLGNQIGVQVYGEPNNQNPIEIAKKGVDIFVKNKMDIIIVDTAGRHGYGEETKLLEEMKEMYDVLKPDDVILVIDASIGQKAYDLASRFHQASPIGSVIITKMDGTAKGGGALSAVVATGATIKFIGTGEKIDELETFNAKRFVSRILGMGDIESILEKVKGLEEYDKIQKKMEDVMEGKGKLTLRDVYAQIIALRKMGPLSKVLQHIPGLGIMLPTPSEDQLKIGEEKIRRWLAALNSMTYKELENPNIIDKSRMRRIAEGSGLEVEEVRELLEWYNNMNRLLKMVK
Put plainly: crystal structure.

Bounds are passed on as bounds.

B1: SRP54-signal sequence fusion protein (SRP54*) with an 11mer linker (other, Sulfolobus solfataricus | S. cerevisiae)
chain: LENIRDAVRKFLTGSTPYEKAVDEFIKDLQKSLISSDVNVKLVFSLTAKIKERLNKEKPPSVLERKEWFISIVYDELSKLFGGDKEPNVNPTKLPFIIMLVGVQGSGKTTTAGKLAYFYKKRGYKVGLVAADVYRPAAYDQLLQLGNQIGVQVYGEPNNQNPIEIAKKGVDIFVKNKMDIIIVDTAGRHGYGEETKLLEEMKEMYDVLKPDDVILVIDASIGQKAYDLASRFHQASPIGSVIITKMDGTAKGGGALSAVVATGATIKFIGTGEKIDELETFNAKRFVSRILGMGDIESILEKVKGLEEYDKIQKKMEDVMEGKGKLTLRDVYAQIIALRKMGPLSKVLQHIPGLGIMLPTPSEDQLKIGEEKIRRWLAALNSMTYKELENPNIIDKSRMRRIAEGSGLEVEEVRELLEWYNNMNRLLKMVKARSGSGSGSGSKLIRVGIILVLLIWGTVLLLKSIPHH
For B1, in data set [1], the “stoichiometry N” value is at least 2.

As to KLIRVGIILVLLIWGTVLLLKSIPHH [signal anchor sequence from S. cerevisiae dipeptidyl-aminopeptidase B (DPAP-B)], the binding result in data set [2] is “binds”.
